The target in assay [1] is rHuman ErbB2/Fc Chimera, CF (R&D Systems Cat#1129-ER) (human) (UniProt P04626). As to the kind of experiment: Multispot ECL (MSD), antigen spotted on plate, Fab 4.375 nM; blank spot 305.
The target in assay [2] is rHuman IGF-1 sR, (IGF-1 sR), CF (R&D Systems Cat#391-GR) (human) (UniProt P08069). The assay is described as above.
The target in assay [3] is rHuman HGF R/c-MET/Fc Chimera, CF (R&D Systems Cat#358-MT/CF) (human) (UniProt P08581). The description is as above.
Sequence of rHuman HGF R/c-MET/Fc Chimera, CF (R&D Systems Cat#358-MT/CF) (human) (P08581 25-932, change not shown): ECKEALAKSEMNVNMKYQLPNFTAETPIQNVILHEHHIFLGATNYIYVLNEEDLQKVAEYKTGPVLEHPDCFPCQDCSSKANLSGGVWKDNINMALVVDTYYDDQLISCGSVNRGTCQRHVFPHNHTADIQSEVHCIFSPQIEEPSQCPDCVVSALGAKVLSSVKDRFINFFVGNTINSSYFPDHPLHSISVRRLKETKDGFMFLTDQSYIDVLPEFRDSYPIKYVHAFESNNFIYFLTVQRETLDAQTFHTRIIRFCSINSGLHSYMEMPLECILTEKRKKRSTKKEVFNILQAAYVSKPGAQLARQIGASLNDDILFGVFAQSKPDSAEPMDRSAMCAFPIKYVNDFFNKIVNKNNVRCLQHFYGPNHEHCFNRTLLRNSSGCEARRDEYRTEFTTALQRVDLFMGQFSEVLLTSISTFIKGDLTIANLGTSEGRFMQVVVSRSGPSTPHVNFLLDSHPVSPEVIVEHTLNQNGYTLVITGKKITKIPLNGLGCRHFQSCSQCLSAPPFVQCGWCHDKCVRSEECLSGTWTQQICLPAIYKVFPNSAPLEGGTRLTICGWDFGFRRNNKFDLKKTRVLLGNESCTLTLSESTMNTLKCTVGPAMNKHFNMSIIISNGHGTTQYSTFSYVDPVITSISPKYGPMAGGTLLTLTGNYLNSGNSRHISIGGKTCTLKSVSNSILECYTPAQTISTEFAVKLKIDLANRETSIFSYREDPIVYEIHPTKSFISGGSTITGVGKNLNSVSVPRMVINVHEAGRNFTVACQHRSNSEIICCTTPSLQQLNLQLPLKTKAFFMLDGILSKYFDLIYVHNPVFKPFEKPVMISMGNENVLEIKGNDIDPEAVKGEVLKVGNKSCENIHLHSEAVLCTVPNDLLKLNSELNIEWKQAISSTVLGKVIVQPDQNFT
In assay [4] the target is rHuman Notch-1/Fc Chimera, CF (R&D Systems Cat#3647-TK) (human) (UniProt P46531). The description is as above.
Assay [5] deals with rHuman P-Cadherin/Fc Chimera, CF (R&D Systems Cat#861-PC) (human) (UniProt P22223). The assay is described as above.
The target in assay [6] is rHuman CD44/Fc Chimera, CF (R&D Systems Cat#3660-CD) (human) (UniProt P16070). Described as above.
Assay [7] concerns the target rHuman ErbB2/Fc Chimera, CF (R&D Systems Cat#1129-ER) (human) (UniProt P04626). As to the kind of experiment: Multispot ECL (MSD), antigen spotted on plate, Fab 17.5 nM; blank spot 304.
For assay [8], the target named is rHuman IGF-1 sR, (IGF-1 sR), CF (R&D Systems Cat#391-GR) (human) (UniProt P08069). The assay is described as above.
Assay [9] deals with rHuman HGF R/c-MET/Fc Chimera, CF (R&D Systems Cat#358-MT/CF) (human) (UniProt P08581). The description is as above.
Assay [10] has as its target rHuman Notch-1/Fc Chimera, CF (R&D Systems Cat#3647-TK) (human) (UniProt P46531). The assay is described as above.
Assay [11] concerns the target rHuman P-Cadherin/Fc Chimera, CF (R&D Systems Cat#861-PC) (human) (UniProt P22223). Described as above.
Assay [12] addresses rHuman CD44/Fc Chimera, CF (R&D Systems Cat#3660-CD) (human) (UniProt P16070). The assay is described as above.
Assay [13] concerns the target rHuman ErbB2/Fc Chimera, CF (R&D Systems Cat#1129-ER) (human) (UniProt P04626). Description: Multispot ECL (MSD), antigen spotted on plate, Fab 280 nM; blank spot 1691.
In assay [14] the target is rHuman IGF-1 sR, (IGF-1 sR), CF (R&D Systems Cat#391-GR) (human) (UniProt P08069). The description is as above.
For assay [15], the target named is rHuman HGF R/c-MET/Fc Chimera, CF (R&D Systems Cat#358-MT/CF) (human) (UniProt P08581). The description is as above.
For assay [16], the target named is rHuman Notch-1/Fc Chimera, CF (R&D Systems Cat#3647-TK) (human) (UniProt P46531). The description is as above.
Assay [17] addresses rHuman P-Cadherin/Fc Chimera, CF (R&D Systems Cat#861-PC) (human) (UniProt P22223). The assay is described as above.
In assay [18] the target is rHuman CD44/Fc Chimera, CF (R&D Systems Cat#3660-CD) (human) (UniProt P16070). The assay is described as above.
In assay [19] the target is rHuman ErbB2/Fc Chimera, CF (R&D Systems Cat#1129-ER) (human) (UniProt P04626). Description: Multispot ECL (MSD), antigen spotted on plate, Fab 70 nM; blank spot 635.
For assay [20], the target named is rHuman IGF-1 sR, (IGF-1 sR), CF (R&D Systems Cat#391-GR) (human) (UniProt P08069). Described as above.
For assay [21], the target named is rHuman HGF R/c-MET/Fc Chimera, CF (R&D Systems Cat#358-MT/CF) (human) (UniProt P08581). The assay is described as above.
Assay [22] has as its target rHuman Notch-1/Fc Chimera, CF (R&D Systems Cat#3647-TK) (human) (UniProt P46531). The description is as above.
For assay [23], the target named is rHuman P-Cadherin/Fc Chimera, CF (R&D Systems Cat#861-PC) (human) (UniProt P22223). The assay is described as above.
The target of assay [24] is rHuman CD44/Fc Chimera, CF (R&D Systems Cat#3660-CD) (human) (UniProt P16070). The assay is described as above.
Assay [25] addresses rHuman EGF R/Fc Chimera, CF (R&D Systems Cat#344-ER) (human) (UniProt P00533). As to the kind of experiment: MSD Multispot ECL, antigen spotted on plate, Fab 57.5 nM; blank spot 954.
For assay [26] the target is unchanged. Description: MSD Multispot ECL, antigen spotted on plate, Fab 920 nM; blank spot 4082.
Assay [27] shares this target. Description: MSD Multispot ECL, antigen spotted on plate, Fab 230 nM; blank spot 1656.
Assay [28] shares this target. Description: MSD Multispot ECL, antigen spotted on plate, Fab 14.375 nM; blank spot 738.
Assay [29] has as its target rHuman ErbB2/Fc Chimera, CF (R&D Systems Cat#1129-ER) (human) (UniProt P04626). As to the kind of experiment: Multispot ECL (MSD) assay, antigen spotted on plate, Fab at […]; blank spot 751.
Assay [30] has the same target. Description: Multispot ECL (MSD) assay, antigen spotted on plate, Fab at […]; blank spot 2945.
Assay [31] shares this target. As to the kind of experiment: Multispot ECL (MSD) assay, antigen spotted on plate, Fab at 0.096 µM; blank spot 917.

Take “Fab VH1-46_IGHD2-15*01_IGHJ2*01 & L12_IGKJ1*01”: the ECL signal in [1] is 384; in assay [2], 369; in [3] it was 193; in [4] it was 480; in [5], 469; in assay [6], 424. The ECL signal in assay [7] is 541; in [8], 626; in assay [9] it was 565; in [10], 680; in assay [11], 949; in assay [12], 664. Besides, the ECL signal is 3950 in [13]; 3530 in [14]; 3560 in [15]; 4380 in [16]; 5400 in [17]; 4070 in [18]. Moreover, the ECL signal in [19] was 1360; in assay [20], 1320; in assay [21], 1290; in [22], 1490; in assay [23] it was 1820; in [24] it was 1370.

Consider “Fab VH1-46_IGHD3-10*01_IGHJ4*01 & L12_IGKJ1*01”, for which the ECL signal amounted to 3860 in assay [25], 13400 in [26], 5720 in assay [27] and 2670 in [28].

For the substance “Fab VH1-46_IGHD6-13*01_IGHJ4*01 & A27_IGKJ1*01”, the ECL signal in assay [29] came out at 2310; in assay [30], 11300; in [31], 3360.

(Values after US20120316071A1.)
